The target of assay [1] is His-tagged BRISC labelled with RED-tris-NTA dye (human) (UniProt P46736). The assay is described as follows: spectral shift (Dianthus); as a16, labelled His-BRISC first incubated with 100 uM FX-171-C (1% DMSO) for 15 min at RT.
Assay [2] shares this target. Description: spectral shift (Dianthus); as a16, labelled His-BRISC first incubated with 100 uM JMS-175-2 (1% DMSO) for 15 min at RT.
For assay [3] the target is unchanged. The assay is described as follows: spectral shift (Dianthus); 12.5 nM RED-tris-NTA labelled His-BRISC, SHMT2(A285T) titrated 46 uM to 1.4 nM, no compound (1% DMSO); 25 mM HEPES pH 7.5, 150 mM NaCl, 1 mM DTT, 0.005% Tween-20, 25 °C; one-site total binding.

Usually Kd stands for the constant that tells how readily two partners part at equilibrium. Take “SHMT2ΔN(A285T) (residues 18–504) (from UniProt P34897 18-504) (enzyme)”: the KD after incubation with FX-171-C in assay [1] stood at 3600 nM. The KD after incubation with JMS-175-2 in assay [2] was found to be 700 nM. Besides, in assay [3], the Kd was 400 nM.

The record behind these values is paper doi:10.1101/2024.09.07.611787, “Molecular glues that inhibit deubiquitylase activity and inflammatory signalling” (bioRxiv, 2024).
